The source of these data is paper PMC5737116, “Biochemical Properties of Human D-Amino Acid Oxidase” (Frontiers in Molecular Biosciences, 2017).

Settings in all cases: other: apparent, 21% oxygen saturation, pH 8.5, 25°C
One series concerns T1, N[C@@H]1CON=C1O.
T1 construct: made in house; host or cells: E. coli
Briefly: Oxygen-consumption activity assay, apparent kinetic parameters (substrate specificity). Format: biochemical, human.

The subject of another series is T2, N[C@H](CS)C(=O)O.
T2 construct: made in house; host or cells: E. coli
Described as above. Format: biochemical, human.

The test system of series [1] is N[C@H](Cc1ccc(O)c(O)c1)C(=O)O. Briefly: purified protein, by the assay type.

Chain of human DAAO (Homo sapiens) (chain, as listed by the source): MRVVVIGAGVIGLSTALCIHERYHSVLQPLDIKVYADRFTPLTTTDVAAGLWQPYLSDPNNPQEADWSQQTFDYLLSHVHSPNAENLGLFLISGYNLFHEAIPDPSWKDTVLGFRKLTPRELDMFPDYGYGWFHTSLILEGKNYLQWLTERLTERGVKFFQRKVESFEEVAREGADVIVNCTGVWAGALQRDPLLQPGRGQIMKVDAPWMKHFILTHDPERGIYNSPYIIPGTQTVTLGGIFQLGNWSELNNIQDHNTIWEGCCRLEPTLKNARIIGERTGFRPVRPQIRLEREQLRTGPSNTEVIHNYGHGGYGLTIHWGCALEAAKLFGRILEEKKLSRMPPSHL

human DAAO (Homo sapiens): in the series with N[C@@H]1CON=C1O, the Km stood at 83.5 ± 15.0 mM, the kcat stood at 0.77 ± 0.05 s⁻¹ and the kcat/Km was 9 M⁻¹ s⁻¹. Moreover, in the series with N[C@H](CS)C(=O)O, the Km is on record as 0.6 ± 0.1 mM, the kcat worked out at 8.6 ± 0.2 s⁻¹ and the kcat/Km was 14600 M⁻¹ s⁻¹. For the same substance, in series [1], the Km was determined as 6 mM, the kcat was 40.5 ± 5.1 [21.7]^d s^−1 and the kcat/Km was 6.75 [14.4]^d mM^−1 x s^−1.
